For this test, the target named is SNAP-GLP-1R (glucagon-like peptide-1 receptor with an N-terminal SNAP-tag), stably expressed in HEK293 cells (UniProt P43220).
Sequence of UniProt P43220 (P43220 24-463): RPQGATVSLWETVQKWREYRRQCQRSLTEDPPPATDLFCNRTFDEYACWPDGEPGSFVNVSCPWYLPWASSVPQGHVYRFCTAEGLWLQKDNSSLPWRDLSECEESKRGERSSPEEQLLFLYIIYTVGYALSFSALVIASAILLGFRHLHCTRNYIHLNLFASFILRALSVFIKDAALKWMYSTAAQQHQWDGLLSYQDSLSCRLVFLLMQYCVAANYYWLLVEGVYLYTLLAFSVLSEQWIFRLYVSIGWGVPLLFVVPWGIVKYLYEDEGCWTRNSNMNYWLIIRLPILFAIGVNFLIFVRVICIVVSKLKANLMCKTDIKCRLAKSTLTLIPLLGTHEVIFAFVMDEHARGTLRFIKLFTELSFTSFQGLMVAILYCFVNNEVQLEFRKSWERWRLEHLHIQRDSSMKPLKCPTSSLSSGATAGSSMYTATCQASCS

Turning to “Exendin-4 (from UniProt P26349 48-87) (peptide)”, the cAMP production in HEK293-SNAP-GLP-1R cells, 30-min stimulation, pEC50 was 9.9 pEC50 (M).
